# Assay: soluble on expression in E. coli; label from the status in PepcDB or PDB records
row,Sequence,soluble on expression in E. coli
1,MSLYTLYSFGTPNGFKPTIMLEELTQPYTIELIDITQGEQFNPDFLKISPNNKIPVLHDQTNDFYLMESVAILQYLAEKHRQFLPETTKEKYTIIQWCYFQAAHIGPMFGQFGHFHRYAQERVPYAMTRYADESMRLLGVMEKQLVKAPFIGGSNYTIADMAIWPWIWCFQFIYGQTIDAKQFPSLMSWYQRISERQAVRATLTAYGREGHHHHHH,soluble
2,MSLYYKVAVSGSGKVLNVFSSEELLIGERVWLNWRNGKVKGYVLERSLSHENEATPSERDGKSFLSEGHVEIAKWVSERFFSPLGMVFDLFFPQGIDDYKEEVVVSESPFLDFDRMTLRDFLENFGEKALKEMVKKGLVRVEKNFYVKEPRPRVKKRLFLKKRISEIIREHLTVKQRMVVEYLQFNDGVPLEELLEDLEVSKSVIETLQRKNIVEIVSGDVFPKKRRILRGDFKGNISKENLFFGPTGSGKTEALFELIDVYSRKGTVLFLVPEVSVLTHTLSRLKGAFPDLKIGIYHSYLSRARKNLEWYKAASGKIDVLLGTRSAVFVPVKNLSLLIVDEEHDESFYQHTRPSYDAIVVARKISEVFDVPIILSSATPDLWTYREAKEGRIRTFNFTRRFGSLSVEVVDMRNEEKIGSFAKKTLDRIEETLEEGKRVLIYVRRKGFWGRVQCEVCGYVLKCENCDVSLVYHSDTHSLKCHQCGREYGLVESCPRCGGRLVGRTAGTERVERELKRYFPTRRIARVDREVVDNIMELESYIDKLIRGEIDILVGTRLITKSLSVPEIGLVCIMDVDSLIFNPDYSSSLRTFQLVVQALGRASRGDQGKAIIQTYNPEDTIIRKALEEDVNGFYAEELERRKALGYPPYRHLIQVAVKSKNPEVGKNSLTSLKEFLKGEEVLGPVEHWVFKLRGFYRHHLIVKTEDLERVLPKLEKALRILGIDAIVRVDPPTLEVSDEGHHHHHH,not soluble
3,MSMDIVMKSDEQPFISAPVCFKTFAFFAKASAEECKLLASGSNARESFQQATGLSEKITEDIYRQIDVSHISSMVFNREMDGGIERNRLGSQAILLDENSRRRNPQFKSIALRSLRYDHIDHRALARKSPHLMPPTYIKEEIMDDELDEVKEEEVSVGEAALPTAKVELNMDHPEKDLIISTSVYLGYTRTLQYHEIRLGRLMKVTDRLELTGDHTLRDLKNAFSCPIDFSFSDDFSEKKPSFKDMAKNKWPSSMFFIHDTFYIDSNTGDQFVDPSITIRTWAKKFDYIGPMHVKQMSETRIGDLICRLGQPYVYIHQGVCEHLIVFNDLCLRDESHTNVEFPRRLVERNFRRIACDTCKEASAHWMIVDHDNLLPNSPGYLCSSCYKEFCFDVNGNKVCQFKAVPYCDRKDIGDGRQFFTELDL,not soluble
4,MSMLCSLYRITPEQVTKLKDFPDAIGELVGFTAPPPKVSFLSKLFGKPPKQLSSSGQQFEPVAESDIFELNQAWHILHFLFSGTNAESPWPGGFLISGGEEIGPDQGYGPIRLFDSELSRAVAGFLDTQSFKMLDSAYVASEIEATEIYWKVSSEHTERQRQLEELWSMVKELQTFFEHTVRAGNATLLSIY,not soluble
5,MSMSHINYNHLYYFWHVYKEGSVVGAAEALYLTPQTITGQIRALEERLQGKLFKRKGRGLEPSELGELVYRYADKMFTLSQEMLDIVNYRKESNLLFDVGVADALSKRLVSSVLNAAVVEGEPIHLRCFESTHEMLLEQLSQHKLDMIISDCPIDSTQQEGLFSVRIGECGVSFWCTNPPPEKPFPACLEERRLLIPGRRSMLGRKLLNWFNSQGLNVEILGEFDDAALMKAFGAMHNAIFVAPTLYAYDFYADKTVVEIGRVENVMEEYHAIFAERMIQHPAVQRICNTDYSALFSPAVR,soluble
6,MSMTDLLNAEDIKKAVGAFSATDSFDHKKFFQMVGLKKKSADDVKKVFHMLDKDKSGFIEEDELGFILKGFSPDARDLSAKETKMLMAAGDKDGDGKIGVDEFSTLVAES,soluble
7,MSNELPWQVWTPDDLAPPPETFVPVEADNVTLTEDTPEPELTAEQQLEQELAQLKIQAHEQGYNAGLAEGRQKGHAQGYQEGLAQGLEQGQAQAQTQQAPIHARMQQLVSEFQNTLDALDSVIASRLMQMALEAARQVIGQTPAVDNSALIKQIQQLLQQEPLFSGKPQLRVHPDDLQRVEEMLGATLSLHGWRLRGDPTLHHGGCKVSADEGDLDASVATRWQELCRLAAPGVL,not soluble
8,MSNEYDEYIANHTDPVKAINWNVIPDEKDLEVWDRLTGNFWLPEKIPVSNDIQSWNKMTPQEQLATMRVFTGLTLLDTIQGTVGAISLLPDAETMHEEAVYTNIAFMESVHAKSYSNIFMTLASTPQINEAFRWSEENENLQRKAKIIMSYYNGDDPLKKKVASTLLESFLFYSGFYLPMYLSSRAKLTNTADIIRLIIRDESVHGYYIGYKYQQGVKKLSEAEQEEYKAYTFDLMYDLYENEIEYTEDIYDDLGWTEDVKRFLRYNANKALNNLGYEGLFPTDETKVSPAILSSLSPNADENHDFFSGSGSSYVIGKAEDTTDDDWDF,soluble
9,MSNFSEGEIFIANIEKKSLECRENDEIVVLKICELCNIIYPIFNKIFGNGFVGDTLKKDLKNSSSQVQRAIEKFPEETKYVSMLYSYNINKYENMEKLKRDLDNGIISFLWMKRTLEFIITFLEKCYITCSETKLSICAQEAYNEVLKKYHGFITSKIVKLCLKLSPTKDILTKKLGFQTHQQASTVLQKCLSITKPLVRDISVTIEKFNCDFEEKI,not soluble
10,MSNICKTVSLRTRKIKDGHMLSYYLDYYPGYRDESTMKVIRHESLGIYIYAKPKNQMEQKYNLNLMARAEAIRCRRFEAIVNERYDFFDKEKMKGDFLAYFKKLADKKNSKWQHVYMHFRTFTQGKCTFGEINVDLCNRFREYLLTAPQGLHKNRKLHINSAANYWSTFRASIHTAYRDRKIKENPNGFLERIETIPTDKEHLSQDEVIRLASTPCSAPALKRAFLFSCLTALRKSDIKKLTWEEIQPYGSDGVMYVTTRMQKTKDIVHNPISEEALELIGYSPDKRGKVFPDFK,not soluble
11,MSNIIKQLEQEQLKQNVPSFRPGDTLEVKVWVVEGSKRRLQAFEGVVIAIRNRGLHSAFTLRKVSNGVGVERVFQTHSPAVDSIAVKRKGAVRKAKLYYLRERSGKSARIKERLGALEHHHHHH,not soluble
12,MSNISTPQPRIGFVSLGCPKNLVDSERILTELRTEGYQVVPRYDDAELVIVNTCGFIDSAVQESLEAIGEALNENGKVIVTGCLGAKENQIREVHPKVLEITGPHSYEQVLSHVHQYVPKPTHNPFTSLVPEQGVKLTPRHYAYLKISEGLEHHHHHH,soluble
13,MSNKLDGINKMITAKHKQMDDLYDEKREVKALIDESDELNHSIEQLYQHLGDRYHSSNMASRMEQFRDEFHFAKRRSTEALYEQQQQIQHGIRKAEEEMIDLEMRRNVEIETVTKEENKWKQLEHHHHHH,soluble
14,MSNKNYVFEEAKESLSSILFNGDSDRTEAGFFDGSVESWNDEDMIDGAKWVDRLVSEMTKAINIDDMRRRVAVILEALESIIKKNTNASKKLEYASMKESLQSLINDNQILKRVIANQHQRSSENEEKAKQVLHLRGVVGQYQEQVHKLELSNYAMKLHLQRSQQQQTSFSGNLPPDIY,soluble
15,MSNLKQLRTRIKSVKSTQKITKAMQLVSASKMAKIKSQIANSNFYIEAVSKMMSAILSIDMYELSIEEQKFFNTVPNKANLLIVMTSQRGLCGTFNYSIIKQVKNDIKELENKGEQIKLIIIGKKGYEALKRQYVNYIDSYFELPKIHDENLMLQVKQKIMSAVENLEVSNCVIYFNKFKNAMTQIMTRQQILPVAKYQDDSMIDNPIVNLVGFGYKERGVKPINNRRATSDIVGESKSIDYNYEYEGESLISNLINLYVNSQINYALLQSRASEEGARMTAMENATNNANDLISKLVLKLNRSRQAIITTELIEIIAGSEVV,not soluble

# From the DeepSol protein solubility set
